In experiment [1] the target is PorA in cell envelopes of N. meningitidis strain HB-1 (N. meningitidis (endogenous in HB-1)) (UniProt E6MZM0). Nature of the experiment: semi-native SDS-PAGE; cell envelopes of N. meningitidis HB-1 or of E. coli expressing PorA or PorA-Q, samples not boiled, blot probed with anti-PorA antibody MN5C11G.
In experiment [2] the target is PorA-Q mutant protein (penultimate Lys of PorA substituted by Gln) expressed in E. coli (N. meningitidis) (UniProt E6MZM0). The description is as above.
In experiment [3] the target is Omp85 from Escherichia coli, refolded in vitro from inclusion bodies (E. coli) (UniProt P0A940).
The target is the same in experiment [4]. This is another data set of the same source.

Here are results for five substances from article PMC1634882.

For the substance “PorA in cell envelopes of N. meningitidis strain HB-1 (from UniProt E6MZM0 20-331) (natural protein)”, the stoichiometry N in experiment [1] is 3.

“PorA-Q mutant protein (penultimate Lys of PorA substituted by Gln) expressed in E. coli (from UniProt E6MZM0 20-331) (natural protein)” showed a stoichiometry N in experiment [2] of 3.

In experiment [3], “denatured E. coli PhoE porin (from UniProt P02932 22-351) (natural protein)” returned an increase in conductivity per 0.12-nS Omp85 channel in planar lipid bilayers (voltage ramps); dose-dependent opening at pM concentrations of denatured PhoE, value at 80 pM of 0.067 nS and a percent increase in conductivity per 0.12-nS Omp85 channel upon addition of 80 pM denatured PhoE of 56 to 58%.

In experiment [3], “maltoporin LamB from E. coli, denatured (from UniProt P02943 26-446) (natural protein)” had an increase in conductivity per 0.12-nS Omp85 channel in planar lipid bilayers (voltage ramps) upon addition of 80 pM denatured LamB of 0.069 nS and a percent increase in conductivity per 0.12-nS Omp85 channel upon addition of 80 pM denatured LamB of 56 to 58%.

Turning to “synthetic peptide corresponding to the C-terminal 12 amino acid residues of PhoE (CterPhoE)”, in experiment [4], the increase in conductivity per 0.12-nS Omp85 channel in planar lipid bilayers; dose-dependent opening at μM concentrations of the peptide, value at 96 μM was 0.6 nS.
